Measured values: patent publication US20070237776A1 (Regeneron, published 2007)
One block for each binder: values may come before it.

Legend:
[1] = molecular target: T1, hIL-18Rα-hFc fusion protein (human, UniProt Q13478 19-329, limits assumed); assay: ELISA solution affinity: antibody premixed with serial dilutions of hIL-18Rα-hFc, free antibody caught on hIL-18Rα-hFc-coated plate
T1 construct: also called IL-18R1-hFc; not shown: human Fc
T1 sequence: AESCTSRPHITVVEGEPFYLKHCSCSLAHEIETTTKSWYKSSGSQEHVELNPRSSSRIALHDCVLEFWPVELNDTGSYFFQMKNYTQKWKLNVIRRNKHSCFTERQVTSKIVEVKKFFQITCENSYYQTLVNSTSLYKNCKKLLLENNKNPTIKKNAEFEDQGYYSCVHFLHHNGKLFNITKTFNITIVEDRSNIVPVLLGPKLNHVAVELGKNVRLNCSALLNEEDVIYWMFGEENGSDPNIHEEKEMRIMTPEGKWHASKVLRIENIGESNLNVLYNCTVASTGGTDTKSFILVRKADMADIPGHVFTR
Procedure: Binding affinity of the antibodies to antigen were also measured using a immunoassay. Antibodies were characterize from hybridoma conditioned medium or as purified protein. Protein was purified after hybridoma cells were grown in low IgG medium and affinity purified using Protein G. IC₅₀ of antigen binding was determined with an ELISA-based assay. Briefly, constant amounts of antibody at different levels, either in hybridoma conditioned medium or purified, were premixed with serial dilutions of antigen protein, hIL-18Rα-hFc, ranging from 0 to 10 mg/ml, and incubated for two hours at room temperature to reach pseudo-binding equilibrium between the antibody and antigen. These solutions were then transferred to 96-well hIL-18Rα-hFc pre-coated plates (solid phase) to allow the free-antibody in the mixtures to bind to plate-coated hIL-18Rα-hFc. […] After washing off excess antibody in solution, the plate-bound antibodies were detected with an HRP-conjugated goat anti-mouse IgG polyclonal antibody reagent and developed using either colorimetric or chemiluminescent substrates. The dependency of the signals on the concentrations of antigen in solution was analyzed with a 4 parameter fit analysis using Prism™ software from Graph Pad™ and reported as IC₅₀ that render 50% reduction of antibody binding to plate-coated antigen.

[2] = molecular target: T2, human interleukin-18 receptor alpha (hIL-18Rα) on cells (human, UniProt Q13478 19-541); assay: cell-based or functional assay
T2 sequence: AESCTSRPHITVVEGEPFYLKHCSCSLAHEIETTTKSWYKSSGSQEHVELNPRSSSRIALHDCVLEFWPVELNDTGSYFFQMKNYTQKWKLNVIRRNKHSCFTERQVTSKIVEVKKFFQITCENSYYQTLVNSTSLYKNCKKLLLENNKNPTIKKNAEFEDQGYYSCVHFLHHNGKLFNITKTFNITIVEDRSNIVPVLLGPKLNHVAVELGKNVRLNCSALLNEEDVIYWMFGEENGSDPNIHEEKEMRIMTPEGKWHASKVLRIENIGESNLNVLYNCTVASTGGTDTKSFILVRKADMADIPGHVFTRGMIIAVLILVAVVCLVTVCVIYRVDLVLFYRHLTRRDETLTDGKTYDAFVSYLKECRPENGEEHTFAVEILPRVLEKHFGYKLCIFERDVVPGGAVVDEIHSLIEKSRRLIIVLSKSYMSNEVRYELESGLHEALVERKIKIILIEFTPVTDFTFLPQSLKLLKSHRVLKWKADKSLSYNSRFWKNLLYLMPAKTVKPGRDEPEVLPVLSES

[3] = molecular target: T1, hIL-18Rα-hFc fusion protein; assay: SPR (BIAcore), antibody from conditioned medium captured on anti-mouse IgG, hIL-18Rα-hFc in solution
Procedure: The KD of the antigen binding to the selected antibodies described above were determined by surface kinetics on a real-time biosensor surface plasmon resonance assay (BIAcore™). The antibody derived from hybridoma was captured on an anti-mouse IgG surface and exposed to various concentrations of hIL-18Rα-hFc fusion protein. Kinetic analysis using evaluation software was performed to obtain the association and dissociation rate constants.

[4] = molecular target: T3, monomeric receptor, hIL18Rα-hIL-18Rb-myc-myc-his (human, UniProt O95256 20-356, limits assumed); assay: SPR (BIAcore), mAb from subclone hybridoma supernatant captured on anti-mouse IgG, monomeric receptor 50-12.5 nM, 1:1 model
T3 construct: Construct known only by its name; also called monomeric antigen; monomeric hIL-18Rα; not shown: myc-myc-his tag
T3 sequence: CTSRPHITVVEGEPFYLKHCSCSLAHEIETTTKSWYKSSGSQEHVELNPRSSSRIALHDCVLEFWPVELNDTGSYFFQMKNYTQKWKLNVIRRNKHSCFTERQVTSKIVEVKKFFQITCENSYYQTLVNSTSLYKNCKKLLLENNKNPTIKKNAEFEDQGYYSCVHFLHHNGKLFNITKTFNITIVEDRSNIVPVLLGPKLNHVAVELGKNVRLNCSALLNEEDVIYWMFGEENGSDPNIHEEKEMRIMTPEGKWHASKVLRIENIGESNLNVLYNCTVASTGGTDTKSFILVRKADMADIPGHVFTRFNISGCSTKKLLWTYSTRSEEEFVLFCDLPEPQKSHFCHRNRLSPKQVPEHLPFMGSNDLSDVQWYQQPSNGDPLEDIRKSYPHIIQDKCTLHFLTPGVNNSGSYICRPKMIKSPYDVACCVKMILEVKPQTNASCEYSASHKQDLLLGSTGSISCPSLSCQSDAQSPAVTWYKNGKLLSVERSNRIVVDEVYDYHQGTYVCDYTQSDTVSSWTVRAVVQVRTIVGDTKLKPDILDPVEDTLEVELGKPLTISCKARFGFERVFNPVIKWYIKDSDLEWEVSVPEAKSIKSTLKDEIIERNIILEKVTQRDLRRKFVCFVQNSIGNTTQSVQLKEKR
Procedure: (§1) Both mouse IgG1 and human IgG4 versions of the derived antibody were measured to determine KD for monomeric antigen using BIAcore™ (Table 2). Binding affinity of monomeric receptor was measured by capturing mAb from subclone hybridoma supernatant and CHO conditioned media over amine coupled anti-mouse IgG and anti-human IgG. […] Data were processed and analyzed using a 1:1 binding model and KD values were calculated.

[5] = molecular target: T3, monomeric receptor, …; assay: SPR (BIAcore), mAb from CHO conditioned medium captured on anti-human IgG, monomeric receptor 50-12.5 nM, 1:1 model
Procedure: as §1

- IC50 [1]: 0.026 nM
- KG-1 Bioassay (IC50 nM) [2]: 0.085 nM
- Luciferase Bioassay (IC50 nM) [2]: 0.653 nM
- Kd [3]: 0.135 nM
B1: VH1F9 (antibody, V domains shown)
VH: QVQLVQSGAEVKKPGASVRVSCKASGYTFTSYDINWVRQATGQGLEYMGWMNPNSGNTGYAQKFQGRVSLTRDTSISTAYMDLNSLRSEDTAVYYCTTPGDKWNYEYFQFWGQGTLVTVSS
VL: DIQMTQSPSSVSASVGDRVTITCRASQHISIWLAWYQQKPGKAPKLLILSASSLLSGVPSRFSGSGSGTDFALTVSSLQPEDFATYYCQQANSFPSFGPGTKVEIK
notes: Hybridoma-derived chimeric IgG: human variable regions, mouse constant regions

- Kd [4]: 6.81 nM
B2: VH1F9-18, mouse IgG1 (antibody, V domains shown)
VH: B1 VH
VL: B1 VL
notes: Chimeric: human variable, mouse IgG1 constant; from subclone hybridoma supernatant; subclone -18 of VH1F9

- Kd [5]: 6 nM
B3: VH1F9-18, human IgG4 (antibody, V domains shown)
VH: B1 VH
VL: B1 VL
notes: Fully human IgG4 version from CHO conditioned medium
